What was measured:
[1] = target: HA of H3N2 A/Brisbane/10/2007 (influenza A virus); assay: BLI steady state
[2] = target: HA of H7N3 A/NIBRG/60 (A/mallard/NL/12/00) (influenza A virus); assay: BLI steady state
[3] = target: HA of B/Brisbane/60/2008 (Victoria) (influenza B virus); assay: cell-based or functional assay
[4] = target: HA of B/Florida/04/2006 (Yamagata) (influenza B virus); assay: cell-based or functional assay
[5] = target: HA of H1N1 A/Brisbane/59/07 (influenza A virus); assay: cell-based or functional assay
[6] = target: HA of H1N1 A/New Caledonia/20/1999 (influenza A virus); assay: cell-based or functional assay
[7] = target: HA of H3N2 A/Brisbane/10/2007 (influenza A virus); assay: cell-based or functional assay
[8] = target: HA of H5N1 A/Vietnam/1194/04 (influenza A virus); assay: cell-based or functional assay
[9] = target: HA of H7N3 A/NIBRG/60 (A/mallard/NL/12/00) (influenza A virus); assay: cell-based or functional assay
[10] = target: hemagglutinin (HA) of influenza A/Brisbane/10/07 (H3N2) (influenza A virus A/Brisbane/10/07 (H3N2)); assay: cell-based or functional assay
[11] = target: hemagglutinin (HA) of influenza A/New York/107/03 (PR8) (influenza A virus A/New York/107/03 (PR8)); assay: cell-based or functional assay
[12] = target: hemagglutinin (HA) of influenza A/chicken/Germany/n/49 (H10N7) (influenza A virus A/chicken/Germany/n/49 (H10N7)); assay: cell-based or functional assay
[13] = target: hemagglutinin (HA) of influenza A/waterfowl/Hong Kong/MPA892/06 (H4) (influenza A virus A/waterfowl/Hong Kong/MPA892/06 (H4)); assay: cell-based or functional assay
[14] = target: HA of H3N2 A/Brisbane/10/2007 (influenza A virus); assay: AlphaLISA competition vs CR8020
[15] = target: HA of H3N2 A/Brisbane/10/2007 (influenza A virus); assay: AlphaLISA competition vs CR8057
[16] = target: HA of H3N2 A/Brisbane/10/2007 (influenza A virus); assay: AlphaLISA competition vs CR9114
[17] = target: hemagglutinin (HA) of influenza B/Florida/04/06 (Yamagata) (influenza B virus); assay: cell-based or functional assay
[18] = target: hemagglutinin (HA) of influenza B/Harbin/7/94 (Yamagata) (influenza B virus); assay: cell-based or functional assay
[19] = target: hemagglutinin (HA) of influenza B/Lee/40 (Old) (influenza B virus) (UniProt P03460); assay: cell-based or functional assay
[20] = target: hemagglutinin (HA) of influenza B/Malaysia/2506/04 (Victoria) (influenza B virus); assay: cell-based or functional assay
[21] = target: hemagglutinin (HA) of influenza B/Massachusetts/02/12 (Yamagata) (influenza B virus); assay: cell-based or functional assay
[22] = target: HA of H3N2 A/Brisbane/10/2007 (influenza A virus); assay: AlphaLISA competition vs 39.29
[23] = target: HA of B/Brisbane/60/2008 (Victoria) (influenza B virus); assay: AlphaLISA competition vs CR9114
[24] = target: HA of B/Florida/04/2006 (Yamagata) (influenza B virus); assay: AlphaLISA competition vs CR9114
[25] = target: HA of H3N2 A/Brisbane/10/2007 (influenza A virus); assay: AlphaLISA competition vs SD1036
[26] = target: HA of H3N2 A/Brisbane/10/2007 (influenza A virus); assay: AlphaLISA competition vs SD1038
[27] = target: HA of B/Florida/04/2006 (Yamagata) (influenza B virus); assay: AlphaLISA competition vs CR8033
[28] = target: HA of B/Brisbane/60/2008 (Victoria) (influenza B virus); assay: AlphaLISA competition vs CR8071
[29] = target: hemagglutinin (HA) of influenza virus B/Florida/04/06 (Yamagata) (influenza B virus); assay: cell-based or functional assay
[30] = target: hemagglutinin (HA) of influenza virus B/Lee/40 (Old) (influenza B virus) (UniProt P03460); assay: cell-based or functional assay
[31] = target: hemagglutinin (HA) of influenza virus H1N1 A/Puerto Rico/8/34-MA (influenza A virus); assay: cell-based or functional assay
[32] = target: hemagglutinin (HA) of influenza virus H3N2 A/HK/1/68-MA (influenza A virus); assay: cell-based or functional assay
[33] = target: hemagglutinin (HA) of influenza virus H5N1 A/Vietnam/1194/04 (influenza A virus); assay: cell-based or functional assay
[34] = target: hemagglutinin (HA) of influenza virus H6N1 A/Taiwan/2/2013 (influenza A virus); assay: cell-based or functional assay
[35] = target: hemagglutinin (HA) of influenza virus H7N3 A/NIBRG/60 (A/mallard/Netherlands/12/00) (influenza A virus); assay: cell-based or functional assay
[36] = target: HA of B/Florida/04/2006 (Yamagata) (influenza B virus); assay: AlphaLISA competition vs CR8071
[37] = target: HA of H1N1 A/New Caledonia/20/1999 (influenza A virus); assay: BLI steady state
[38] = target: HA of H1N1 A/Puerto Rico/8/34-MA (influenza A virus); assay: cell-based or functional assay
[39] = target: HA of H5N1 A/PR8 H5N1 HK97 (influenza A virus); assay: cell-based or functional assay
[40] = target: hemagglutinin (HA) of influenza virus B/Brisbane/60/08 (Victoria) (influenza B virus); assay: cell-based or functional assay
[41] = target: recombinant HA of B/Brisbane/60/08 (Victoria) (influenza B virus); assay: biolayer interferometry (Octet), steady-state fit, geometric mean, pH 7.4
[42] = target: recombinant HA of B/Florida/04/06 (Yamagata) (influenza B virus); assay: as above

B1: SD1046 (VHH)
VHH: EVQLVESGGGLVQAGDSLRISCAASGRTLSIYSMGWFRQAPGKEREFVATIGWNSGRTFYPDSLKGRFTISRDNARNTLYLQMNNLRPEDTAVYYCAAAKGPLRLSSQADYWGQGTQVTVSS
- Kd [1]: 2 nM
- Kd [2]: 3 nM
- VNA titer [3]: > 1000 nM
- VNA titer [4]: > 1000 nM
- VNA titer [5]: > 1000 nM
- VNA titer [6]: > 1000 nM
- VNA titer [7]: 6.6 nM
- VNA titer [8]: > 1000 nM
- VNA titer [9]: 26.4 nM
- VNA IC50 [10]: 5 nM
- VNA IC50 [11]: 34 nM
- VNA IC50 [12]: 13 nM
- VNA IC50 [13]: 3 nM
- pIC50 [14]: 9.6
- pIC50 [15]: < 7
- pIC50 [16]: 9.9

B2: SD1087 (VHH)
VHH: EVQLVESGGGLVQPGGSLRLSCVISGLSLDTYAVGWFRQAPGKEREGITCISSGHGMTYYADSVKGRFTVSTDNAKNTVYLQMNGLQPEDTARYYCATESRYYCSDNWPAPQRYIYWGQGTQVTVSS
- VNA titer [3]: 10.2 nM
- hemagglutination inhibition titer [3]: > 50 µg/mL
- VNA titer [4]: > 1000 nM
- hemagglutination inhibition titer [4]: > 50 µg/mL
- VNA IC50 [17]: > 1000 nM
- VNA IC50 [18]: > 1000 nM
- VNA IC50 [19]: 22 nM
- VNA IC50 [20]: 59 nM
- VNA IC50 [21]: 1000 nM
- pIC50 [22]: < 7
- pIC50 [23]: 7.5
- pIC50 [24]: 8.8
- pIC50 [16]: < 7
- pIC50 [25]: < 7
- pIC50 [26]: < 7
- pIC50 [27]: < 7
- pIC50 [28]: < 7

B3: MD2401 (protein)
chain: EVQLVESGGGLVQPGGSLRLSCAVSISIFDIYAMDWYRQAPGKQRDLVATSFRDGSTNYADSVKGRFTISRDNAKNTLYLQMNSLKPEDTAVYLCHVSLYRDPLGVAGGMGVYWGKGALVTVSSAAAGGGGSGGGGSGGGGSGGGGSGGGGSGGGGSGGGGSEVQLVESGGGLVQAGGSLKLSCAASGRTYAMGWFRQAPGKEREFVAHINALGTRTYYSDSVKGRFTISRDNAKNTEYLEMNNLKPEDTAVYYCTAQGQWRAAPVAVAAEYEFWGQGTQVTVSSLINLEGGGGSGGGGSGGGGSGGGGSGGGGSGGGGSGGGGSPAGEVQLVESGGGLVQPGGSLRLSCAATGFTLENKAIGWFRQTPGSEREGVLCISKSGSWTYYTDSMRGRFTISRDNAENTVYLQMDSLKPEDTAVYYCATTTAGGGLCWDGTTFSRLASSWGQGTQVTVSSAAAGGGGSGGGGSGGGGSGGGGSGGGGSGGGGSGGGGSEVQLVESGGGLVQPGGSLRLSCAATGFTLENKAIGWFRQTPGSEREGVLCISKSGSWTYYTDSMRGRFTISRDNAENTVYLQMDSLKPEDTAVYYCATTTAGGGLCWDGTTFSRLASSWGQGTQVTVSS
- average neutralization titer [29]: 277 nM
- average neutralization titer [30]: 165 nM
- average neutralization titer [31]: 14.7 nM
- average neutralization titer [32]: 27.7 nM
- average neutralization titer [33]: 27.7 nM
- average neutralization titer [34]: 36.3 nM
- average neutralization titer [35]: 27.7 nM

B4: SD1086 (VHH)
VHH: EVQLVESGGGLVQAGGSLRLSCTASGSISSIDYMRWYRQYPGKHRELVATITSGGAADSRDSVKGRFTVSRGNAANTMYLQMNNLKPEDTAVYYCNAYGLEIGAHWGRGTQVTVSS
- VNA titer [3]: 827 nM
- VNA titer [4]: > 1000 nM
- pIC50 [23]: 8.6
- pIC50 [24]: 8
- pIC50 [27]: < 7
- pIC50 [28]: < 7
- pIC50 [36]: < 7

B5: SD1045 (VHH)
VHH: EVQLVESGGGLVQAGGSLRLSCAASGSSFSINVMGWYRQAPGKQREMVATITYGGSTNYVDSVKGRFTISRDNAKNTVYLQMNSLKPEDTAVYYCNSRLAQINYWGQGTQVTVSS
- Kd [37]: 5 nM
- VNA titer [3]: > 1000 nM
- VNA titer [4]: > 1000 nM
- VNA titer [6]: 166 nM
- VNA titer [38]: 206 nM
- VNA titer [7]: 641 nM
- VNA titer [39]: 117 nM
- VNA titer [8]: 63.5 nM
- VNA titer [9]: > 1000 nM

B6: MD1221 (VHH)
chain: EVQLVESGGGLVQPGGSLRLSCAATGFTLENKAIGWFRQTPGSEREGVLCISKSGSWTYYTDSMRGRFTISRDNAENTVYLQMDSLKPEDTAVYYCATTTAGGGLCWDGTTFSRLASSWGQGTQVTVSSAAAGGGGSGGGGSGGGGSGGGGSGGGGSGGGGSGGGGSEVQLVESGGGLVQPGGSLRLSCAATGFTLENKAIGWFRQTPGSEREGVLCISKSGSWTYYTDSMRGRFTISRDNAENTVYLQMDSLKPEDTAVYYCATTTAGGGLCWDGTTFSRLASSWGQGTQVTVSS
- neutralization titer [40]: 23.4 nM
- neutralization titer [29]: 76.4 nM
- neutralization titer [30]: 32.5 nM
- Kd [41]: 1.7 nM
- Kd [42]: 1.9 nM

From US20190359693A1
